{"source": "patent US20190309034A1", "about": "(Boehringer Ingelheim, published 2019)", "binders": {"B1": {"name": "418F6D9 (antibody, V domains shown)", "VH": "QVQLQQSGPELVKPGASVKLSCKASGYTFTDYSIHWVKQSPGQGLEWIGWIYPGSGNTKYNDKFKGKATMTADKSSRTVYMQLSSLTSEESAVYFCARDYRRYYAIDYWGQGTSVTVSS", "VL": "IVLTQSSASLAVSLGQRATISCRASESVDSYGNSLMHWYQQKPGQPPKLLIYIASNLESGVPARFSGSGSRTDFTLTIDPVEADDAATYYCQQNSEDPRTFGGGTKLEIK"}, "B2": {"name": "394F5A5 (antibody, V domains shown)", "VH": "VTLKESGPGILQPSQTLSLTCSFSGFSLRTFGMGVGWIRQPSGKGLEWLAHIWWNDEKYYNPTLKSRLTISKDTSKNQVFLRIANVDTAVTAAYYCARIGPSITTVVEGFPYWGQGTLVTVSA", "VL": "DIVMTQSQKFMSTTIGDRVSITCKASQNVGSAVAWYQQKPGQPPKLLIYSTSNRYTGVPDRFTGSRSGTDFTLTVSNMQSEDLADYFCQQYASYPLTFGTGTKLELK"}, "B3": {"name": "409F12A11 (antibody, V domains shown)", "VH": "IQLQQSGPELVKPGASMKISCKASGYTFTDKYINWVKQRPGQGLEWIGWIYPGSGNTKYNEKFKGMATLTVDTSSNTAYIHLSSLTSEDSAVYFCARGIIYYYDGSYPYALDYWGQGTSVTVSS", "VL": "DIVLTQSPASLALSLGQRATISCRATKGVSKSGYSYMHWYQQKPGQPPKLLIYLASNLESGVPARFSGSGSGTDFTLNIHPVEEEDVATYYCQHSRELPLTFGAGTKLELK"}, "B4": {"name": "431G5A3 (antibody, V domains shown)", "VH": "QLQQSGPELVKPGASVKLSCKASGYTFTDYSIHWVKQSPGQGLEWIGWIYPGSDNTKYNDKFKGKASMTADKSSRTVYMHLSSLTSEESAVYFCARDYRRYYAMDYWGQGTSVTVSS", "VL": "KIVLTQSSASLAVSLGQRATISCRASESVDRYGNSLMHWYQQKPGQPPKLLIYIASNLESGVPARFSGSGSRTDFTLTIDPVEADDAATYYCQQNNEDPRTFGGGTKLEIK"}, "B5": {"name": "381A6A9 (antibody, V domains shown)", "VH": "QVQLQQSGPELVKPGGSVKISCKAAGYSLTSYYIHWVKQRPGQGLEWIGLIFPGSGNSKYIEKFKGKATLTADTSSNTAYMQLSSLTSEDSAVYYCTRGDFGNYLAYWYFDVWGTGTTVTVSS", "VL": "DIKMTQSPSSIYASLGERVTITCKASQDINSYLSWFQQKPGKSPKTLMYRANRLVDGVPSRFSGSGSGQDYSLTISSLEYEDMGNYYCLQYDEFPYTFGGGAKLEIK"}, "B6": {"name": "384D5A2 (antibody, V domains shown)", "VH": "QVTLKESGPGILQPSQTLSLTCSFSGFSLNTYGMGVGWIRQPSGKGLEWLANIWWNDDKYYNSALKSRLAISKDASNSQVFLKISSVDTTDTATYYCAQVAATIVTTYGAWFAYWGQGTLVTVSA", "VL": "DIQMTQSPASLSVSVGETVTITCRSSENIYSSLAWYQQKQGKSPQLLVYAATNLAKGVPSRFSGSGSGTQYSLKINSLQSEDFGSYFCQHFWGSPFAFGSGTKLEIK"}}, "key": {"[1]": {"target": "Recombinant soluble trimeric human BAFF (furin-cleaved human BAFF 134-285) (human, UniProt Q9Y275 134-285)", "assay": "cell-based or functional assay"}, "[2]": {"target": "Recombinant soluble 60-mer human BAFF (His-HuBAFF 134-285) (human, UniProt Q9Y275 134-285)", "assay": "cell-based or functional assay"}}}
{"binder": "B1", "values": [{"measurement": "Soluble trimeric huBAFF (50 pM) Neutralization IC50", "setting": "[1]", "result": 38, "unit": "pM"}, {"measurement": "Soluble trimeric huBAFF (50 pM) Neutralization IC90", "setting": "[1]", "result": 491, "unit": "pM"}, {"measurement": "Soluble 60-mer huBAFF (4 pM) Neutralization IC50", "setting": "[2]", "result": 27, "unit": "pM"}, {"measurement": "Soluble 60-mer huBAFF (4 pM) Neutralization IC90", "setting": "[2]", "result": 154, "unit": "pM"}]}
{"binder": "B2", "values": [{"measurement": "Soluble trimeric huBAFF (50 pM) Neutralization IC50", "setting": "[1]", "result": 16, "unit": "pM"}, {"measurement": "Soluble trimeric huBAFF (50 pM) Neutralization IC90", "setting": "[1]", "result": 433, "unit": "pM"}, {"measurement": "Soluble 60-mer huBAFF (4 pM) Neutralization IC50", "setting": "[2]", "result": 7, "unit": "pM"}, {"measurement": "Soluble 60-mer huBAFF (4 pM) Neutralization IC90", "setting": "[2]", "result": 29, "unit": "pM"}]}
{"binder": "B3", "values": [{"measurement": "Soluble trimeric huBAFF (50 pM) Neutralization IC50", "setting": "[1]", "result": 31, "unit": "pM"}, {"measurement": "Soluble trimeric huBAFF (50 pM) Neutralization IC90", "setting": "[1]", "result": 390, "unit": "pM"}, {"measurement": "Soluble 60-mer huBAFF (4 pM) Neutralization IC50", "setting": "[2]", "result": 16, "unit": "pM"}, {"measurement": "Soluble 60-mer huBAFF (4 pM) Neutralization IC90", "setting": "[2]", "result": 44, "unit": "pM"}]}
{"binder": "B4", "values": [{"measurement": "Soluble trimeric huBAFF (50 pM) Neutralization IC50", "setting": "[1]", "result": 28, "unit": "pM"}, {"measurement": "Soluble trimeric huBAFF (50 pM) Neutralization IC90", "setting": "[1]", "result": 336, "unit": "pM"}, {"measurement": "Soluble 60-mer huBAFF (4 pM) Neutralization IC50", "setting": "[2]", "result": 21, "unit": "pM"}, {"measurement": "Soluble 60-mer huBAFF (4 pM) Neutralization IC90", "setting": "[2]", "result": 100, "unit": "pM"}]}
{"binder": "B5", "values": [{"measurement": "Soluble trimeric huBAFF (50 pM) Neutralization IC50", "setting": "[1]", "result": 44, "unit": "pM"}, {"measurement": "Soluble trimeric huBAFF (50 pM) Neutralization IC90", "setting": "[1]", "result": 240, "unit": "pM"}, {"measurement": "Soluble 60-mer huBAFF (4 pM) Neutralization IC50", "setting": "[2]", "result": 17, "unit": "pM"}, {"measurement": "Soluble 60-mer huBAFF (4 pM) Neutralization IC90", "setting": "[2]", "result": 42, "unit": "pM"}]}
{"binder": "B6", "values": [{"measurement": "Soluble trimeric huBAFF (50 pM) Neutralization IC50", "setting": "[1]", "result": 42, "unit": "pM"}, {"measurement": "Soluble trimeric huBAFF (50 pM) Neutralization IC90", "setting": "[1]", "result": 765, "unit": "pM"}, {"measurement": "Soluble 60-mer huBAFF (4 pM) Neutralization IC50", "setting": "[2]", "result": 15, "unit": "pM"}, {"measurement": "Soluble 60-mer huBAFF (4 pM) Neutralization IC90", "setting": "[2]", "result": 44, "unit": "pM"}]}
